Test results taken from publication PMC4960319.

What was measured:
[1] = biological target: σ^R (sigma factor SigR) from Streptomyces coelicolor, residues 5-227, tagless (Streptomyces coelicolor) (UniProt Q7AKG9); assay: ITC; RsrA mutants (values in Supplementary Table 1); 35 °C, 50 mM Tris pH 7.5, 100 mM NaCl, 2 mM DTT; direct titration for weaker binding mutants (10 μM RsrA in the cell, 100 μM σ^R in the syringe); RsrA preincubated with ZnCl2 and buffer exchanged where zinc was included
[2] = biological target: σR (residues 5-227) (Streptomyces coelicolor) (UniProt Q7AKG9); assay: ITC; with zinc (+), RsrA preincubated with 1 mM ZnCl2 and buffer exchanged; direct titration for weaker binding mutants (methods: 10 μM RsrA in the cell, 100 μM σR in the syringe); 35 °C, 50 mM Tris pH 7.5, 100 mM NaCl, 2 mM DTT; single binding site model

Row | Substance | fold weakening of binding to σ^R against RsrA [1] [fold] | Kd [2] [µM]
1 | RsrA Val54Ala Leu57Ala (from UniProt Q7AKG8 1-105) (natural protein) | > 100 | 
2 | RsrA Val75Ala Leu79Ala (from UniProt Q7AKG8 1-105) (natural protein) | > 100 | 
3 | RsrA* C41S (from UniProt Q7AKG8 4-105) (natural protein) |  | 0.557
